Tests used:
Experiment in all cases: cleavage_in_vitro
[1] = system: T1, OMNI-136 (metagenomic, unknown); conditions: TXTL; PAM NNDRCNAA
T1 sequence: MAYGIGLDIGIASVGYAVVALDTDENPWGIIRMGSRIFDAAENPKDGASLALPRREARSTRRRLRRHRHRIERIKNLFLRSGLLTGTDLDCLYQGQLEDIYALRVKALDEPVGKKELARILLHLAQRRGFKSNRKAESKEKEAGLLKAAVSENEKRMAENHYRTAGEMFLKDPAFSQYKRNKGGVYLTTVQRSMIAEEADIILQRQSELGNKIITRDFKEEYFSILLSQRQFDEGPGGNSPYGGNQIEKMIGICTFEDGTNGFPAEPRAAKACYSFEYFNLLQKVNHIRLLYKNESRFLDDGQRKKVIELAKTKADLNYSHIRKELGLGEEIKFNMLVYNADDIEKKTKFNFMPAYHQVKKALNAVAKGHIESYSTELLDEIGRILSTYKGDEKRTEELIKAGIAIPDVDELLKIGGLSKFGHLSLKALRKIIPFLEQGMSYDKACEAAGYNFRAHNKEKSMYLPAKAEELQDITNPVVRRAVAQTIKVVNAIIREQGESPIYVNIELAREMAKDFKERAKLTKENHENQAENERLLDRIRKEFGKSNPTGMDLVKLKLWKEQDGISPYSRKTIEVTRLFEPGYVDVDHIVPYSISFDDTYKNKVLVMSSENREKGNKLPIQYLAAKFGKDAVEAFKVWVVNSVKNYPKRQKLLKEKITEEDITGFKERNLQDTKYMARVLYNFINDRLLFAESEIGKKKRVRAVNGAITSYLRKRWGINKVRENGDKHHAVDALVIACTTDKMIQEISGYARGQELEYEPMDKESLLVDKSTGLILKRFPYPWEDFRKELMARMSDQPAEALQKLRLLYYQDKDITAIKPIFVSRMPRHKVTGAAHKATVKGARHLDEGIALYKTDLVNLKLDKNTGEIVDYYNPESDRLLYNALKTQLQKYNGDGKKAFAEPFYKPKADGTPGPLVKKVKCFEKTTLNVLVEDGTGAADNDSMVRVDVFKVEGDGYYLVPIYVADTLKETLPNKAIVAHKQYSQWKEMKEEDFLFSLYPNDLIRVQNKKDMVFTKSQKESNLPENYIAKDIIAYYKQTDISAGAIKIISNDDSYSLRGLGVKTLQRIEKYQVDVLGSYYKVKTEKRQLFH

[2] = system: T2, OMNI-135 (metagenomic, unknown); conditions: TXTL; PAM NNWACCNN
T2 sequence: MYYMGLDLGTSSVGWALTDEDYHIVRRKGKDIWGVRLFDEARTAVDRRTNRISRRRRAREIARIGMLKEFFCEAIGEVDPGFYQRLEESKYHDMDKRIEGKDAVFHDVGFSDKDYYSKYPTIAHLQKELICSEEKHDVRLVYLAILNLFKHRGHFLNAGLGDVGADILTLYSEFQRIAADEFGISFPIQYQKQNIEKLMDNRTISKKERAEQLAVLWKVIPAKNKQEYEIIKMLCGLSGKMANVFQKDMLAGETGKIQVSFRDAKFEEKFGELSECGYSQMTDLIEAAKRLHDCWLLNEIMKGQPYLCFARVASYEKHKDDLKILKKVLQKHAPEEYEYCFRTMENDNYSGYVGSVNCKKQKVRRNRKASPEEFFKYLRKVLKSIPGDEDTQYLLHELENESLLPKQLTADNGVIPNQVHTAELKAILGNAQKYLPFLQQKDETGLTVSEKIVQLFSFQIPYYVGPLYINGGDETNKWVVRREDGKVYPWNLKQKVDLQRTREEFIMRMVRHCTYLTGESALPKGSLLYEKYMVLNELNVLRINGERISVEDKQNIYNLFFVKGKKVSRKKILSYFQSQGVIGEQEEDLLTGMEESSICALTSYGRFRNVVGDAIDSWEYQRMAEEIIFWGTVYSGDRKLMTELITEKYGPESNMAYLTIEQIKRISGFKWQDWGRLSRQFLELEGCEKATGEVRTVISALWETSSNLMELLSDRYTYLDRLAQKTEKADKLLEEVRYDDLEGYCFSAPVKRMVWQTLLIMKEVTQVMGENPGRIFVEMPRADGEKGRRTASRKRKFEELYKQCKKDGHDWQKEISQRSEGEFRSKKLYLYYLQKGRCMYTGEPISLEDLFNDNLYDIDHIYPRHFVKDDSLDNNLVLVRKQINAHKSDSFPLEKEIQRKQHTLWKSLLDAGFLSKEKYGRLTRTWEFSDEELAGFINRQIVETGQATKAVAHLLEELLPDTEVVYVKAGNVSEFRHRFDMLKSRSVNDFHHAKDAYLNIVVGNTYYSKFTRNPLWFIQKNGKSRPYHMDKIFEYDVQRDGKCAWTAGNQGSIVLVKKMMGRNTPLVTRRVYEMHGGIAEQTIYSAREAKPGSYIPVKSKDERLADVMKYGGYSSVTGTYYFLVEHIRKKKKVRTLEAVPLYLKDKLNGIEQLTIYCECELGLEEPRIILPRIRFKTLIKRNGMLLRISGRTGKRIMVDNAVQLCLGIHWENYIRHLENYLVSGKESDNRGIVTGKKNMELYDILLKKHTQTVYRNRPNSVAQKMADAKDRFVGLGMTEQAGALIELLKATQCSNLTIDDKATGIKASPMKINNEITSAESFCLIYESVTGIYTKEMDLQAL

[3] = system: T3, OMNI-92 (metagenomic, unknown); conditions: TXTL; PAM NNNNRYGA
T3 sequence: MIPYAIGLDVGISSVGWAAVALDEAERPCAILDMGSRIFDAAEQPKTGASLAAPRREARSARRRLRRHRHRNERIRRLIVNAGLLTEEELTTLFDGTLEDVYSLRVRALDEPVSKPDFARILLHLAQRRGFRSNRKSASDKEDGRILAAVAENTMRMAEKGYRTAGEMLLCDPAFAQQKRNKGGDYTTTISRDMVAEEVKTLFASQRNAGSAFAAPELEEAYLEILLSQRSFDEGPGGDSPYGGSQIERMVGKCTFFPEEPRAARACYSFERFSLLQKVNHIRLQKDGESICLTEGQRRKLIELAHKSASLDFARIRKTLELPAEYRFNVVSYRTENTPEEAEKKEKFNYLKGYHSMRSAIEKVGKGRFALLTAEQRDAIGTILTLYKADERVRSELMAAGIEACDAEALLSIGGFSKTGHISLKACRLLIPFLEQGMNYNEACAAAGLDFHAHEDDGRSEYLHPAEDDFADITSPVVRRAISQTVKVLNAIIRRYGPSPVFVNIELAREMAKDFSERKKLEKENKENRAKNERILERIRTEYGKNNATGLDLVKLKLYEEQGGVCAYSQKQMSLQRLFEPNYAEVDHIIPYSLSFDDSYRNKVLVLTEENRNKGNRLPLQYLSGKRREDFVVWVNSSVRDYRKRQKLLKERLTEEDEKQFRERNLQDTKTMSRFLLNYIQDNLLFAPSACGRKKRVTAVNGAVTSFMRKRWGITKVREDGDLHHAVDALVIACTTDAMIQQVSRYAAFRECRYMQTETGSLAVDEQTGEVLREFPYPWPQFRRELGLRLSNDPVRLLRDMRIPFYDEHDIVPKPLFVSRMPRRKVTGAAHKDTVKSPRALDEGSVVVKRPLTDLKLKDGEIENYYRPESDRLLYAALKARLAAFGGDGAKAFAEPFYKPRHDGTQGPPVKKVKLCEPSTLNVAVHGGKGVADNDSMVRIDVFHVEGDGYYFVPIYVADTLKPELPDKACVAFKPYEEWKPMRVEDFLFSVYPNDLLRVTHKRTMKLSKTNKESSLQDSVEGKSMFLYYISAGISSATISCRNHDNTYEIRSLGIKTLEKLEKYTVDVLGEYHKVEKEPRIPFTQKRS

[4] = system: T4, OMNI-133 (metagenomic, unknown); conditions: TXTL; PAM NNTAMCNN
T4 sequence: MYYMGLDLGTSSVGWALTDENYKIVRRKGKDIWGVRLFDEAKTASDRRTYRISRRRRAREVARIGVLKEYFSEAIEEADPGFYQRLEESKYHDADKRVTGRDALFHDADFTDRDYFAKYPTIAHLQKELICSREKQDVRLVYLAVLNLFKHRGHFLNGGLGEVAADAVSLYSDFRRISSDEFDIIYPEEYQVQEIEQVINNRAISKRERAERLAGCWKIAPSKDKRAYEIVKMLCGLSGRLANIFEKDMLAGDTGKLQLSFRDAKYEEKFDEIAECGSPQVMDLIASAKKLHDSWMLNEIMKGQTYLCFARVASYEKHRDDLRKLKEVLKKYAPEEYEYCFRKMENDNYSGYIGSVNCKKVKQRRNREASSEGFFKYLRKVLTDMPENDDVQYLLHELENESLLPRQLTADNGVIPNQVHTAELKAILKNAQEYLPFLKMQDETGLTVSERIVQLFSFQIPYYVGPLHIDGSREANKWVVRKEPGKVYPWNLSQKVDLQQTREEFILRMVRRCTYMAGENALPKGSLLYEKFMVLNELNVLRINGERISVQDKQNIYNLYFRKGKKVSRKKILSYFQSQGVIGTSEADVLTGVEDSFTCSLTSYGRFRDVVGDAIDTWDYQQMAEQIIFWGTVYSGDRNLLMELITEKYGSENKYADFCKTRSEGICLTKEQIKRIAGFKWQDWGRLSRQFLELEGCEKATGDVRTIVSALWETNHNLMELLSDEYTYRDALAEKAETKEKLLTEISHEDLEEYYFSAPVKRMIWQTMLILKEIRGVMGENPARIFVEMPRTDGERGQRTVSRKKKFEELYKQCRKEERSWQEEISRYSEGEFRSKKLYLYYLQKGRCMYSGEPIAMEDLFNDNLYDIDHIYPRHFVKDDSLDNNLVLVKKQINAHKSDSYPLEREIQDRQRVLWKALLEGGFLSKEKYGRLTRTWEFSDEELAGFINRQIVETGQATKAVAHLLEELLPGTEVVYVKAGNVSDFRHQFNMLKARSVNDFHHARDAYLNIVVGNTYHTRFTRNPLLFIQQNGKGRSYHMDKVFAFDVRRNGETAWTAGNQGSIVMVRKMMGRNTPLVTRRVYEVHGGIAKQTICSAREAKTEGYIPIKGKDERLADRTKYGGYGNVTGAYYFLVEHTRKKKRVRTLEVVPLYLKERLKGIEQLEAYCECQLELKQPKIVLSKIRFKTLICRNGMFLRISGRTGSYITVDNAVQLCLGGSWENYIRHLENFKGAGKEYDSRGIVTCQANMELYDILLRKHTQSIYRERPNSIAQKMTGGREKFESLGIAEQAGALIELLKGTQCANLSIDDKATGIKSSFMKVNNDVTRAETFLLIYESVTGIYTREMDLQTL

GGAAGAGCAGAGCCUUGGUCUCGUUGUAGUUCCCUGUUAAUGAAAAUUUUCGGGUUACUAUGAUAAGGUAGAACACCGAAAAGCUCUAACGCCUUGCCAUUUGGUGAGGCGUUAUCUUUUUU / GGAAGAGCAGAGCCTTGGTCTCNNNNNNNN / NNNNNNNNGAGACCAAGGCTCTGCTCTTCC [T2 sgRNA 36 V1 ; T2 protospacer + 8N PAM library (pbPOS T2)]
activity (1-depletion score) [1]: 0.97

GGAAGAGCAGAGCCUUGGUCUCGUUUGAGAACCUUGUAAGAAAUUACAAGGUGAGUGCAAAUAAGGAUUUUUCCGAAAUCACUCCUCAUGGAUGUCCGCAUUGUGCGGUGAAAAAGACUCUGUUUAGAGUCUUUUUU / GGAAGAGCAGAGCCTTGGTCTCNNNNNNNN / NNNNNNNNGAGACCAAGGCTCTGCTCTTCC [T2 sgRNA 35 V1 ; T2 protospacer + 8N PAM library (pbPOS T2)]
activity (1-depletion score) [2]: 0.95

GGAAGAGCAGAGCCUUGGUCUCGUUGUAGUUCCCUGAUCGUGAAAACGAUCAGGUUGCUACAAUAAGGUAGUACACCGAAGAGCUCUAACGCCCCGUUUUGCGGGGCGUUAUCUCUUUUUUU / GGAAGAGCAGAGCCTTGGTCTCNNNNNNNN / NNNNNNNNGAGACCAAGGCTCTGCTCTTCC [T2 sgRNA 3 V1 ; T2 protospacer + 8N PAM library (pbPOS T2)]
activity (1-depletion score) [3]: 0.97

GGAAGAGCAGAGCCUUGGUCUCGUUUGAGAACCUUGUAAGAAAUUACAAGGUGAGUGCAAAUAAGGAUUUUUCCGAAAUCACUCCUCAUAAGAGUCCGCAUUGUGCGGUGAAAAGACUCUGCCAAGAGUCUUUUUU / GGAAGAGCAGAGCCTTGGTCTCNNNNNNNN / NNNNNNNNGAGACCAAGGCTCTGCTCTTCC [T2 sgRNA 33 V1 ; T2 protospacer + 8N PAM library (pbPOS T2)]
activity (1-depletion score) [4]: 0.95
